In experiment [1] the target is T1, Biotinylated human Amyloid beta 1-42 peptide (human, N-terminal biotin).
T1 construct: Synthetic peptide (rPeptide A1117 or Bachem H-5642); range counted on Amyloid beta; also called N-terminal biotin Abeta 1-42; synthetic biotinylated human Amyloid beta 1-42 peptide
The experiment can be described thus: SPR (ProteOn), biotinylated peptide on streptavidin chip, scFv as analyte.

For experiment [2], the target named is T1, Biotinylated human Amyloid beta 1-42 …. The experiment can be described thus: HTRF epitope competition, purified scFv against Abet0144-GL IgG1-TM (competitor) for biotinylated human Amyloid beta 1-42. (In general: TR-FRET usually uses a lanthanide donor and a delayed reading to cut background.)
Experiment [3] has as its target T2, Amyloid beta plaques in human Alzheimer's Disease brain sections (human, UniProt P05067 672-713, limits assumed).
T2 construct: domain: Amyloid beta; Paraffin sections treated with formic acid; aggregated native peptide of mixed length; also called native Amyloid beta; human AD brain sections
The experiment can be described thus: in vitro immunohistochemistry, core plaques.

Experiment [4] deals with T3, Amyloid beta plaques in Tg2576 mouse brain sections (human (transgene in mouse), UniProt P05067 672-713, limits assumed).
T3 construct: domain: Amyloid beta; The two APP mutations lie before the first residue of Amyloid beta; also called native Amyloid beta; Tg2576 brain sections
T3 sequence (P05067 672-713 limits assumed): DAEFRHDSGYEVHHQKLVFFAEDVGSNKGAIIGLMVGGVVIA
The experiment can be described thus: in vitro immunohistochemistry, core plaques.

T1 sequence (peptide, as listed by the source): as the sequence (P05067 672-713 limits assumed) above
T2 sequence (P05067 672-713 limits assumed): as above

B1: Abet0328 scFv (scFv, V domains shown)
VH: EVQLLESGGGLVQPGGSLRLSCAASSDAFKTDTMWWVRQAPRKGLEWVSVIGAHTNNSAYADSVKGRFTISRDNSKNTLYLQMNSLRAEDTAVYYCAREWMDRSRPYYYYGMDVWGQGTLVTVSS
VL: SYELTQPPSVSVSPGQTVSITCSGRNLEDKFASWYQQKPGQSPVLVIYRDDKRPSGVPERFSASNSGHTATLTISGTQATDEADYYCSSQDTVTRVFGGGTKLTVL
A word on the Kd: it is the free concentration of one partner at which half of the binding sites on the other are occupied at equilibrium, for simple one-to-one binding. Usually koff stands for the first-order rate constant of dissociation. Low readings indicate slow dissociation, high ones fast dissociation. For orientation: kon means the rate constant with which the complex forms. Read a low kon as slow association. The term IC50 denotes the midpoint of a concentration-inhibition curve. The low end stands for inhibition by little substance, the high end for a need for much substance. In the case of B1, in experiment [1], the Kd was 0.729 nM, the koff was 0.000103 s⁻¹ and the kon worked out at 141000 M⁻¹ s⁻¹. In experiment [2], the IC50 is 0.55 nM.

B2: Abet0380-GL IgG1-TM (antibody, V domains shown)
VH: EVQLLESGGGLVQPGGSLRLSCAASMGNFNYQTMWWVRQAPGKGLEWVSVIGKTNENIAYADSVKGRFTISRDNSKNTLYLQMNSLRAEDTAVYYCAREWMDHSRPYYYYGMDVWGQGTLVTVSS
VL: SYELTQPPSVSVSPGQTASITCSGHNLEDKFASWYQQKPGQSPVLVIYRDDKRPSGIPERFSASNSGHTATLTISGTQAMDEADYYCSSQDTVTRVFGGGTKLTVL
notes: Whole human IgG1 with the triple mutation L234F/L235E/P331S (TM) and human lambda light chain constant domain; also called Abet0380-GL (germlined) IgG1-TM
For B2, the plaque staining score was 3 score (0-4) in experiment [3] and 4 score (0-4) in experiment [4].

B3: Abet0144-GL IgG1-TM (antibody, V domains shown)
VH: EVQLLESGGGLVQPGGSLRLSCAASGFTFSVYTMWWVRQAPGKGLEWVSVIGSSGGTTVYADSVKGRFTISRDNSKNTLYLQMNSLRAEDTAVYYCAREWMDHSRPYYYYGMDVWGQGTLVTVSS
VL: SYELTQPPSVSVSPGQTASITCSGHNLEDKFASWYQQKPGQSPVLVIYRDDKRPSGIPERFSASNSGHTATLTISGTQAMDEADYYCQAQDSTTRVFGGGTKLTVL
notes: Whole human IgG1 with the triple mutation L234F/L235E/P331S (TM) and human lambda light chain constant domain; also called Abet0144-GL (germlined) IgG1-TM
Turning to B3, the plaque staining score was 1.5 score (0-4) in experiment [3] and 1 score (0-4) in experiment [4].

For the origin of these results see patent publication US20180105585A1 (published 2018).
